The text below walks through data of patent publication US20260317428 (published 2026).

Test [1] has as its target FGFR2IIIc on HEK293 cells (human, UniProt P21802). The experiment in a line: FACS. A general note: In flow cytometry, cells or beads pass a laser one at a time.
Test [2] deals with T1, human FGFR3c (alpha IIIc) (human, UniProt P22607).
T1 chain: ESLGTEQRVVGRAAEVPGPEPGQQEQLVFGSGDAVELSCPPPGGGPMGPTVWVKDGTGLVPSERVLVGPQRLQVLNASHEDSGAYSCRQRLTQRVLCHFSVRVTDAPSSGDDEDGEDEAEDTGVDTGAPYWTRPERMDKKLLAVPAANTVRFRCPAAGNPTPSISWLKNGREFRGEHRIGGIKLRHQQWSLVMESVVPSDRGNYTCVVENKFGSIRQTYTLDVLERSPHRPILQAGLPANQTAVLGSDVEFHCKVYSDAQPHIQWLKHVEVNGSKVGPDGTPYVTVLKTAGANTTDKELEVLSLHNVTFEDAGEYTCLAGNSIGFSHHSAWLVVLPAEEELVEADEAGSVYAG
The experiment in a line: ELISA. (An ELISA detects its analyte on a solid surface through an enzyme-linked reagent.)

The target of test [3] is T2, human FGFR1b (alpha IIIb) (human, UniProt P11362).
T2 chain: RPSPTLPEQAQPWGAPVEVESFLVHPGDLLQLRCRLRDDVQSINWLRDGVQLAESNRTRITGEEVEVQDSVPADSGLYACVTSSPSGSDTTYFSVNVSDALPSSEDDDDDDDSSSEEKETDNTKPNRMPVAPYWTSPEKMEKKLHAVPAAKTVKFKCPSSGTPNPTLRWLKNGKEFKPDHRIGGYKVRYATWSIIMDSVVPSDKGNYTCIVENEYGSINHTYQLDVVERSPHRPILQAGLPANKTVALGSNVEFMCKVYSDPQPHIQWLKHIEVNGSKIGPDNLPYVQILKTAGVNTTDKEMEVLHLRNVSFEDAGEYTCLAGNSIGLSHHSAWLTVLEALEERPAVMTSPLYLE
The experiment in a line: ELISA.

Test [4] addresses human FGFR2c (alpha IIIc) (human, UniProt P21802). The experiment in a line: ELISA.
Test [5] concerns the target T3, human FGFR3b (alpha IIIb) (human, UniProt P22607).
T3 chain: T1 chain
The experiment in a line: ELISA.

In test [6] the target is T4, human FGFR1c (FGFR1/CD331) (human, UniProt P11362).
T4 chain: T2 chain
The experiment in a line: ELISA.

Another test addresses human FGFR4 (CD334) (human, UniProt P22455). The experiment in a line: ELISA.
The target of another test is T5, human FGFR2b ECD (human, UniProt P21802).
T5 chain: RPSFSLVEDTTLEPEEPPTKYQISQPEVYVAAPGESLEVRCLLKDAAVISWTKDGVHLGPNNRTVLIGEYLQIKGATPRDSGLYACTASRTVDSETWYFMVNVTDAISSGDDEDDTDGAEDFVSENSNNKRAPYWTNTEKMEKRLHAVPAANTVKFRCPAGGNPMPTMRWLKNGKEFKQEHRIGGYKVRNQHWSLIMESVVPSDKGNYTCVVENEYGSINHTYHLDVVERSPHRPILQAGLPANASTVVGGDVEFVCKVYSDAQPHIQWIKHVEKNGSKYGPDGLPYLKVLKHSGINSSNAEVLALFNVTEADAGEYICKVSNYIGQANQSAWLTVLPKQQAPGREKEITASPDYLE
The experiment in a line: BLI.

Some results are limits rather than exact numbers.

Sequence of human FGFR4 (CD334) (P22455 22-369): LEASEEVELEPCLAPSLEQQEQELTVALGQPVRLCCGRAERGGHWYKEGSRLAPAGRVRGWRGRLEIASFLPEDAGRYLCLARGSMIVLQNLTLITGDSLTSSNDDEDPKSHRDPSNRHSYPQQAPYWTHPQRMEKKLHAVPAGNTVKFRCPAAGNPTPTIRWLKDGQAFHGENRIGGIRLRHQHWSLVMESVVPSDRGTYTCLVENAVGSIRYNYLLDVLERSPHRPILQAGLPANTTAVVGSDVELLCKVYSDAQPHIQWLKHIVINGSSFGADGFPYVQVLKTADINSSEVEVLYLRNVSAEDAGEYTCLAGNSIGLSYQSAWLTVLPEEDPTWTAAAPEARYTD

B1: mAb1 (antibody, V domains shown)
VH: QAYLQQSGAELVRPGASVKMSCKASGYTFTSYNMHWVKQTPRQGLEWIGSIYPENGDTSYNQKFRDKATLTVDKSSSTAYMQLSSLTSEDSAVYFCARPFDYWGQGTTLTVSS
VL: SIVMTQTPKFLPISAGDRVTMTCKASQSVGNNVAWYQQKPGQSPKLLIYYASNRYTGVPDRFTGSGSGTDFTFTISSVQVEDLAVYFCQQFYSSPYTFGSGTKLEIK
B1: the binding result in test [1], in test [2], in test [3], in test [4], in test [5] and in test [6] was “no binding” throughout. Also, the binding result in the test with human FGFR4 (CD334) was “no binding”.

B2: humAbA1 (antibody, V domains shown)
VH: QVQLVQSGAEVKKPGASVKVSCKASGYTFTSYNMHWVRQAPGQGLEWMGSIYPENGDTSYNQKFQDRVTLTRDTSTSTVYMELSSLRSEDTAVYYCARPFDYWGQGTLVTVSS
VL: DIQMTQSPSSLSASVGDRVTITCQASQSVGNNLAWYQQKPGKAPKLLIYYASNLYTGVPSRFSGSGSGTDFTFTISSLQPEDIATYYCQQFYSSPYTFGQGTKLEIKR
In the case of B2, the Kd – broadly, the equilibrium constant for the complex coming apart – with human FGFR2b ECD was below 1 nM. In addition, the binding result in test [1], in test [2], in test [3], in test [4], in test [5] and in test [6] was “no binding” throughout. The binding result with human FGFR4 (CD334) is listed as “no binding”.
